What was measured:
[1] = system: HL-1 cells; experiment: Autophagy scored by intracellular distribution of GFP-LC3 (fluorescence microscopy) in HL-1 cells; type: cell-based, murine; settings: for modulation of autophagy: HL-1 cells transfected with LC3GFP, treated with Tat protein (FIG. 18)
[2] = system: HL-1 cells; experiment: Protection in cell culture by recombinant Tat-Beclin1; type: cell-based
[3] = system: isolated perfused rat hearts; experiment: Langendorff global ischemia/reperfusion injury in isolated perfused rat hearts (CK release, TTC infarct size, hemodynamics)
[4] = system: isolated perfused rat hearts; experiment: Autophagy in isolated perfused rat hearts (LC3-II/LC3-I Western blot, cadaverine dye binding); settings: Tat protein approximately 200 nM before SUL
[5] = system: adult rat cardiomyocytes; experiment: Autophagy (GFP-LC3 puncta) in adult rat cardiomyocytes; type: cell-based; settings: Tat protein 30 min before CCPA
[6] = system: adult rat cardiomyocytes
[7] = system: HL-1 cells; experiment: Cell death by LDH release after simulated ischemia/reperfusion (sI/R) in HL-1 cells; type: cell-based, murine
Description: Cells of the murine atrial-derived cardiac cell line HL-1^16 were plated in gelatin/fibronectin-coated culture vessels and maintained in Claycomb medium^16 (JRH Biosciences, Lenexa, Kans.) supplemented with 10% fetal bovine serum, 0.1 mm norepinephrine, 2 mm […], 100 U·mL^-1 penicillin, 100 U·mL^-1 streptomycin, and 0.25 μg·mL^-1 amphotericin B. Cells were plated in 14-mm diameter glass bottom microwell dishes (MatTek), and ischemia was introduced by a buffer exchange to ischemia-mimetic solution (in mM: 20deoxyglucose, 125 NaCl, 8 KCl, 1.2 KH2PO4, 1.25 MgSO4, 1.2 CaCl2, 6.25 NaHCO2, 5 sodium lactate, 20 HEPES, pH 6.6) and placing the dishes in hypoxic pouches (GasPakTM EZ, BD Biosciences) equilibrated with 95% N2, 5% CO2. After 2 hr of simulated ischemia, reperfusion was initiated by a buffer exchange to normoxic MKH buffer and incubation at 95% room air, 5% CO2. […] Protein content and LDH activity were determined according to El-Ani et al.^20. Briefly, 25 μl supernatants from 35 mm dishes were transferred into wells of a 96-well plate, and the LDH activities were determined with an LDH-L kit (Sigma), according to the manufacturer. The product of the enzyme was measured spectrophotometrically at 30° C. at a wavelength of 340 nm as described previously^21. […]

B1: Tat-Beclin1: cell-permeable recombinant Tat fusion of rat Beclin 1; stimulant or activator of autophagy (protein)
chain: MRGSHHHHHHGMASMTGGQQMGRDLYDDDDKDRWGSKLGYGRKKRRQRRRGGSTMSGYPYDVPDYAGSMAGTGLEMEGSKASSSTMQVSFVCQRCSQPLKLDTSFKILDRVTIQELTAPLLTTAQAKPGESQEEEANSGEEPFIETRQDGVSRRFIPPARMMSTESANSFTLIGEASDGGTMENLSRRLKVTGDLFDIMSGQTDVDHPLCEECTDTLLDQLDTQLNVTENECQNYKRCLEMLEQMNEGDSEQLQRELKELALEEERLIQELEDVEKNRKVVAENLEKVQAEAERLDQEEAQYQREYSEFKRQQLELDDELKSVENQMRYAQMQLDKLKKTNVFNATFHIWHSGQFGTINNFRLGRLPSAPVEWNEINAAWGQTVLLLHALANKMGLKFQRYRLVPYGNHSYLESLTDKSKELPLYCSGGLRFFWDNKFDHAMVAFLDCVQQFKEEVEKGETRFCLPYRMDVEKGKIEDTGGSGGSYSIKTQFNSEEQWTKALKFMLTNLKWGLAWVSSQFYNK
modulation of autophagy [1]: stimulates autophagy | protection [2]: protection in cell culture

B2: Tat-Atg5^K130R: Atg5^K130R expressed as a fusion protein with the protein transduction domain derived from HIV Tat; cell-permeable dominant negative inhibitor of autophagy (protein)
chain: MRGSHHHHHHGMASMTGGQQMGRDLYDDDDKDRWGSKLGYGRKKRRQRRRGGSTMSGYPYDVPDYAGSMAGTMTDDKDVLRDVWFGRIPTCFTLYQDEITEREAEPYYLLLPRVSYLTLVTDKVKKHFQKVMRQEDVSEIWFEYEGTPLKWHYPIGLLFDLLASSSALPWNITVHFKSFPEKDLLHCPSKDAVEAHFMSCMREADALKHKSQVINEMQKKDHKQLWMGLQNDRFDQFWAINRKLMEYPPEENGFRYIPFRIYQTTTERPFIQKLFRPVAADGQLHTLGDLLREVCPSAVAPEDGEKRSQVMIHGIEPMLETPLQWLSEHLSYPDNFLHISIVPQPTD
modifications: synthetic peptide or nucleic acid
modulation of autophagy [1]: inhibits autophagy | effect on protection by sulfaphenazole given at reperfusion (infarct size) ([3]; FIG. 17, 3 hearts per condition): protection is lost | infarct size ([3]; absence of SUL, vehicle control 38.5%, p=NS): 42.0% | infarct size ([3]; pretreatment with Tat-Atg5^K130R, then SUL infusion): 30 % of the area at risk | effect on autophagy induced by SUL (LC3-II/I ratio, cadaverine dye binding) [4]: potently suppressed autophagy induced by SUL | effect on autophagy [5]: suppressed autophagy | effect on protection by CCPA (LDH release) ([6]; Tat protein 30 min before CCPA, then simulated ischemia): eliminated the protection by CCPA | LDH release under normoxic conditions ([6]; absence of CCPA, normoxia): did not increase LDH release | injury from sI/R ([6]; absence of CCPA, sI/R): nor did it exacerbate injury from sI/R

B3: Atg5^K130R: dominant negative point mutant of Atg5 delivered by transient transfection in HL-1 cells (protein, UniProt Q9H1Y0 1-275, looked up, variant K130R)
Autophagy protein 5: MTDDKDVLRDVWFGRIPTCFTLYQDEITEREAEPYYLLLPRVSYLTLVTDKVKKHFQKVMRQEDISEIWFEYEGTPLKWHYPIGLLFDLLASSSALPWNITVHFKSFPEKDLLHCPSKDAIEAHFMSCMREADALKHKSQVINEMQKKDHKQLWMGLQNDRFDQFWAINRKLMEYPAEENGFRYIPFRIYQTTTERPFIQKLFRPVAADGQLHTLGDLLKEVCPSAIDPEDGEKKNQVMIHGIEPMLETPLQWLSEHLSYPDNFLHISIIPQPTD
modifications: mCherry fusion
notes: dominant negative point mutant of Atg5 delivered by transient transfection in HL-1 cells
effect on cytoprotection by CCPA (LDH release) ([7]; inhibitor plus CCPA, then sI/R (2 hr sI, 3 hr R)): eliminated the protective effects of CCPA after sI/R | effect on cytoprotection by CCPA in the second window of protection (LDH release) ([7]; with CCPA 10 min, washout, sI/R 20-24 hr later): abolished the cytoprotective effect of CCPA | autophagy ([1]; transient transfection, co-transfected with GFP-LC3 (FIG. 6)): effectively suppressed autophagy | effect on autophagy in the second window of protection ([1]; with CCPA 10 min, washout, 20-24 hr later): suppressed autophagy in the second window of protection

From patent US20130202646A1, “COMPOSITIONS AND METHODS FOR MODULATING AUTOPHAGY” (SAN DIEGO STATE UNIVERSITY (SDSU) FOUNDATION, priority 2010, published 2013)
